According to US20150284453A1, “METHOD OF PROTECTING CARDIAC FUNCTION” (Declmmune Therapeutics, Inc., priority 2012, published 2015):

B1: murine 21G6 mAb: murine anti-N2 monoclonal antibody from hybridoma ATCC Accession Number PTA-9393 (antibody, V domains shown)
VH: QVQLQQPGAELVKPGASVKLSCKASGYTFTSYYMYWVKQRPGQGLEWIGGINPSNGGTNFNEKFKSKATLTVDKSSSTAYMQLSSLTSEDSAVYYCTRWGYDREWFAYWGQGTLVTVSA
VL: DIVMTQAAPSVPVTPGESVSISCRSSKSLLHSNGNTYLYWFLQRPGQSPQVLIYRMSNLASGVPDRFSGSGSGTAFTLRISRVEAEDVGVYYCMQHLEYPFTFGSGTKLEIKR

What was measured:
Type in all cases: in vivo
[1] = system: swine model of myocardial infarction; experiment: Myocardial infarct size by Evan's blue/TTC staining, swine model of myocardial infarction (1 h LAD occlusion, 5 d reperfusion); settings: 5d post-reperfusion, TTC staining; i.v. N2 4.6 mg/kg 5 min or murine 21G6 mAb 2 mg/kg 30 min prior to reperfusion
Protocol: FIG. 2A to 2C are plots showing that N2 peptide and murine 21G6 mAb reduce infarct size in a swine model of myocardial infarction. Swine were subjected to 1 h LAD occlusion and 5 d reperfusion. Prior to reperfusion either saline, N2 (4.6 mg/kg), or murine 21G6 mAb (2 mg/kg) was injected i.v. into the swine. Following 5 d reperfusion, myocardial sections were stained with Evan's blue and TTC. (A) Myocardial infarct size expressed as a percentage of the left ventricle (LV). (B) Percentage of area at risk (AAR) to the LV. (C) Myocardial infarct size expressed as a percentage of the AAR. # represents p<0.05; ## represents p<0.01; ### represents p<0.001. Each symbol represents data from one animal. (Note: Due to poor perfusion with Evan's blue dye in one animal, n=5 in panels B and C). […] Saline-treated animals developed approximately a 20% infarct of the left ventricle as assessed by TTC staining at 5d post-reperfusion as predicted.

[2] = system: swine model of myocardial infarction; experiment: Serum cardiac troponin-T (cTnT) levels, swine model of myocardial infarction; settings: N2 4.6 mg/kg or m21G6 2 mg/kg i.v. prior to reperfusion; for reduction of peak serum cTnT levels as compared to saline controls: 8-120 h post-reperfusion; for reduction of cTnT AUC values as compared to saline controls: five day reperfusion period
Protocol: FIGS. 3A and 3B are plots showing the effect of N2 peptide and murine 21G6 mAb (m21G6) on serum cardiac troponin-T (cTnT) levels. Swine were subjected to 1 h LAD occlusion and 5 d reperfusion. Prior to reperfusion either saline, N2 (4.6 mg/kg), or m21G6 (2 mg/kg) was injected i.v. into the swine. Serum samples were taken at several time points as described in text and analyzed for cTnT. (A) Peak cTnT levels. (B) cTnT levels over 5d reperfusion. # represents p<0.05; ## represents p<0.01. Each symbol represents data from one animal. Cardiac troponin-T (cTnT), a well-established marker for cardiac tissue injury, from 8-120 h post-reperfusion, was also analyzed. […] Saline-treated animals developed approximately a 20% infarct of the left ventricle as assessed by TTC staining at 5d post-reperfusion as predicted • Serial EKGs to document ST elevation • Angiogram q20 min to confirm complete occlusion • Lidocaine and defibrillation as needed • Administration of control vs. N2 peptide 5 minutes prior to reperfusion or mAb 21G6 30 minutes before reperfusion • Measure trend in cardiac enzymes (CK, cTnT) • Cardiectomy on Day 5 or Day 21 via cardioplegic arrest • LAD ligation at site of occlusion followed by injection of Evans blue dye via aortic cannula gives estimate of Area At Risk (AAR) • Incubation of transverse sections in TTC for 15 min at 37° C. • Calculate % infarction by computerized planimetry • 21G6 Alexa 568(1 mg/ml) infusion was initiated 2 min prior to reperfusion at ≈1 m1/min for ≈30 min via coronary catheter (results shown in FIG. 1 showing localization of the antibody to the injured left ventricle and not to the uninjured right ventricle) • Heart was perfused with cardioplegic solution 1 h post-ischemia, harvested, sectioned, and punch biopsies taken in the area at risk and in right ventricle • Sections were stained with anti-swine CD31 FITC (Serotec) 1/20 dilution • Using a fluoroscopically guided balloon catheter approach, the left anterior descending coronary artery (LAD) was occluded for 60 min at a defined point distal to the 2nd and 3rd diagonal branches. Saline-treated animals developed approximately a 20% infarct of the left ventricle as assessed by TTC staining at 5d post-reperfusion as predicted.

[3] = system: porcine model of myocardial infarction; experiment: Cardiac function (LVEF, fractional shortening) by echocardiography, porcine model of myocardial infarction; settings: for increase in EF compared to saline controls at the same time point: 21 days post-reperfusion, 3D TTE, n of 3 per group; for ejection fraction (EF) 21 d post-reperfusion: Quinones method; for ejection fraction (EF) 21 d post-reperfusion / LVEF at baseline: n=3/group; for recovery of cardiac function by fractional shortening (FS) compared to baseline: 21d reperfusion period; for LVEF at baseline: baseline (prior to occlusion procedure)
Source text: FIG. 4A to 4C are graphs showing measurements of cardiac function by echocardiography. (A) Non-corrected % LVEF as measured by 2D TTE at 21d post-reperfusion compared to baseline using Quinones method (described below in the Examples section). (B) % LVEF as measured by 3D TTE at 21d post-reperfusion. (C) Fractional shortening as measured by 2D TTE at 21d post-reperfusion compared to baseline. # represents a p<0.05. n=3/group.
To determine the effect of N2 peptide and the 21G6 antibody treatment on cardiac function, echocardiography was employed. Echocardiography is widely accepted for evaluation of cardiac function and is utilized in emergency and operating rooms as well as intensive care departments in most hospitals. Ventricular function as assessed by echocardiography is accompanied by low intra-observer and inter-observer variability and assessment of left ventricular ejection fraction remains the standard of care in clinical practice. In addition, fractional shortening (FS), another measure of left ventricular function, was also calculated based on two-dimensional (2D) measurements at all time points measured at mid-ventricle and is defined as the difference between end-diastolic and end-systolic dimensions divided by end-diastolic dimension.
For animals in which functional data was generated (N2: n of 3, murine 21G6 mAb: n of 3, Saline: n of 3), cardiac imaging was performed via transthoracic echocardiography (TTE) at baseline (prior to occlusion procedure), and then up to 21d following reperfusion. For baseline TTE images were obtained using a high-frequency 2D probe and a Philips iE33 xMATRIX scanner (Andover, Mass.). Prior to sacrifice at 21 days, both 2D and 3D epicardial echocardiography images were obtained after median sternotomy was performed. 3D volumetric data sets were ECG-gated from 4-7 consecutive heartbeats. Additionally, 3D left ventricular volumes and ejection fractions were computed from the epicardial 3D datasets.
Prior to the occlusion procedure, a baseline TTE image was recorded. Afterwards, TTE was performed. Animals were treated in an identical manner as in the 5 day study for the catheterization procedure except that animals were maintained for an additional 16 days. The echocardiographer was blinded to the treatment schedule.
At baseline, saline, N2- and murine 21G6 mAb -treated animals had LVEFs of 53%, 52.6%, and 51%, respectively.
• Intravenous amiodarone infusion (1 mg/min) • Systemic heparinization (˜150 units/kg) • Percutaneously access of LAD via right (R) femoral artery • Occlusion mid-LAD with balloon catheter for 60 min as follows: Using a fluoroscopically guided balloon catheter approach, the left anterior descending coronary artery (LAD) was occluded for 60 min at a defined point distal to the 2nd and 3rd diagonal branches. […]

| Molecule | reduction of infarct size as a percentage of the area at risk (AAR) [1] | reduction of peak serum cTnT levels as compared to saline controls [2] | reduction of cTnT AUC values as compared to saline controls [2] | increase in EF compared to saline controls at the same time point [3] | ejection fraction (EF) 21 d post-reperfusion ([3]; 2D TTE) | recovery of cardiac function by fractional shortening (FS) compared to baseline ([3]; 2D TTE) | LVEF at baseline ([3]; 2D TTE) | recovery of cardiac function (LVEF at 21 d relative to baseline) ([3]; 21 d post-reperfusion vs baseline, 2D TTE, saline-treated 74.7%) |
| --- | --- | --- | --- | --- | --- | --- | --- | --- |
| LMKNMDPLNDNV [N2 peptide] | 31% | no effect | no effect | 29% | 52.0% | 98.8% | 52.6% |  |
| B1 | 49% | 60% | 47% | 21% | 50.4% | 99.4% | 51% | 98.8% |
